In paper PMC2603183:

Assays:
[1] = target: CHIR-AB1 extracellular domain (chicken); experiment: SPR
[2] = target: FcY (CH3-CH4 domains of chicken IgY) (chicken); experiment: SEC
chicken IgY (chicken) = experiment: SPR
[3] = target: CHIR-AB1 extracellular domain (chicken); experiment: AUC

Substance chicken IgY (natural protein) has a Kd [1] of 17 nM, a microscopic KD, binding of the first CHIR-AB1 to IgY (bivalent analyte model) [1] of 403 nM and a microscopic KD, binding of the second CHIR-AB1 to IgY (bivalent analyte model) [1] of 3900 nM.

“CHIR-AB1 extracellular domain (receptor)” gave a stoichiometry N [2] of 1.83, a Kd (chicken IgY (chicken)) of 800 nM and a stoichiometry N [3] of 2.
